Assay results taken from IntAct's records for PubMed 17934474.

target: brr2_yeast BRR2 (UniProt P32639)
Sequence (P32639 whole entry): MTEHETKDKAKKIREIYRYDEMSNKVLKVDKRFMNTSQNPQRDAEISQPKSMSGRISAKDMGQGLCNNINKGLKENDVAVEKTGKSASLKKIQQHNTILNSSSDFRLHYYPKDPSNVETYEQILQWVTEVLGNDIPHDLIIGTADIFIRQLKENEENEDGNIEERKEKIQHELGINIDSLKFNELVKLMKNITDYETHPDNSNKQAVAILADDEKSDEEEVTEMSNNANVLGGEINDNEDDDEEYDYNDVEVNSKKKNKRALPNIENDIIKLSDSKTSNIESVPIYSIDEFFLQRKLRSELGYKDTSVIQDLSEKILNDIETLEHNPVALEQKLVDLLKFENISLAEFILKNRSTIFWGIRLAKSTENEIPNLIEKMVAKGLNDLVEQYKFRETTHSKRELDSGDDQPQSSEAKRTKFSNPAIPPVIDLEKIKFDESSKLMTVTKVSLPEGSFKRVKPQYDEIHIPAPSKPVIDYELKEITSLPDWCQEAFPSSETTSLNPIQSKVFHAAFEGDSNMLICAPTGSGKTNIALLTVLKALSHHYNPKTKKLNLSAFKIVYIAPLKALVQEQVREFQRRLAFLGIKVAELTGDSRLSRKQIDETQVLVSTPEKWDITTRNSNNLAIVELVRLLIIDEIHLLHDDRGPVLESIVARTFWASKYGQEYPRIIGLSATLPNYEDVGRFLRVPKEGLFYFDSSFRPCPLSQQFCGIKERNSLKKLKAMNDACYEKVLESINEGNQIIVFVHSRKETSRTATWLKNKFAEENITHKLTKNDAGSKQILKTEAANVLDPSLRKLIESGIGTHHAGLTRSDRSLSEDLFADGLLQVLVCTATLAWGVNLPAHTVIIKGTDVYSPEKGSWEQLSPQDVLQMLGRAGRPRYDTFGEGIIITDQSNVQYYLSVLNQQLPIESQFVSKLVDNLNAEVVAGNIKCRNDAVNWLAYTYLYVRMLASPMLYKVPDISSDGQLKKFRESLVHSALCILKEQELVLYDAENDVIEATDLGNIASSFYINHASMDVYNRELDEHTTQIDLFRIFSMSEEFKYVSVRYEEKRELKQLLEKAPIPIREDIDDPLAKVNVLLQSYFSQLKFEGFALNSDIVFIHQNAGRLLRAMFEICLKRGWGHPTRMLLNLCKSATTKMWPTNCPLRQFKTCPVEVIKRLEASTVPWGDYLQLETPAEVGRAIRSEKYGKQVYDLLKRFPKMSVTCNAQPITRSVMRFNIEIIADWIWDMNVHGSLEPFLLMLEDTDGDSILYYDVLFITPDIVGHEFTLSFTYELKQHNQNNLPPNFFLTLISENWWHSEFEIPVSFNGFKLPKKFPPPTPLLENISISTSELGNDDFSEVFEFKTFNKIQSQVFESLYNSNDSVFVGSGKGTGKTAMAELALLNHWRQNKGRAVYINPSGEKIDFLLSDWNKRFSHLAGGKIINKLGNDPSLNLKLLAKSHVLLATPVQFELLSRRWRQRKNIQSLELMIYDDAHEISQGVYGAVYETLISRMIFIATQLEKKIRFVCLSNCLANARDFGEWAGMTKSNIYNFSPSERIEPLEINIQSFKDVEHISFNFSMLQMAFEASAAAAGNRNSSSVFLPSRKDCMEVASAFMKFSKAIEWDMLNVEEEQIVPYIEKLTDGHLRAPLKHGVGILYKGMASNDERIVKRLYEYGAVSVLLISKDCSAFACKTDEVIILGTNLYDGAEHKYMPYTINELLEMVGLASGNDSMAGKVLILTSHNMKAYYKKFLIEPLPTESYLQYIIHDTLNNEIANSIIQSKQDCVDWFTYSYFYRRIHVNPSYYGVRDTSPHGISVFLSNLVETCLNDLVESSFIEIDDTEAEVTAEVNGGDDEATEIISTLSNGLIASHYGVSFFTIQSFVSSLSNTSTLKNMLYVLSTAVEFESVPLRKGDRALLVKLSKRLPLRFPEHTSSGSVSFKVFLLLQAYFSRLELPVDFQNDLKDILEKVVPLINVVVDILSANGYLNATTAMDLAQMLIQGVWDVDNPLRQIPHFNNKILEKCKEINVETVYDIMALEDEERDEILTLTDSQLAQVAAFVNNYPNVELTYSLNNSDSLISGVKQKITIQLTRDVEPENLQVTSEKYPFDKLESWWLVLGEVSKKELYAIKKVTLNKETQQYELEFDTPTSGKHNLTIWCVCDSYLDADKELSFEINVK

Sequence of Pre-mRNA-splicing factor 8 (Saccharomyces cerevisiae), P33334 F2382L (P33334 whole entry F2382L): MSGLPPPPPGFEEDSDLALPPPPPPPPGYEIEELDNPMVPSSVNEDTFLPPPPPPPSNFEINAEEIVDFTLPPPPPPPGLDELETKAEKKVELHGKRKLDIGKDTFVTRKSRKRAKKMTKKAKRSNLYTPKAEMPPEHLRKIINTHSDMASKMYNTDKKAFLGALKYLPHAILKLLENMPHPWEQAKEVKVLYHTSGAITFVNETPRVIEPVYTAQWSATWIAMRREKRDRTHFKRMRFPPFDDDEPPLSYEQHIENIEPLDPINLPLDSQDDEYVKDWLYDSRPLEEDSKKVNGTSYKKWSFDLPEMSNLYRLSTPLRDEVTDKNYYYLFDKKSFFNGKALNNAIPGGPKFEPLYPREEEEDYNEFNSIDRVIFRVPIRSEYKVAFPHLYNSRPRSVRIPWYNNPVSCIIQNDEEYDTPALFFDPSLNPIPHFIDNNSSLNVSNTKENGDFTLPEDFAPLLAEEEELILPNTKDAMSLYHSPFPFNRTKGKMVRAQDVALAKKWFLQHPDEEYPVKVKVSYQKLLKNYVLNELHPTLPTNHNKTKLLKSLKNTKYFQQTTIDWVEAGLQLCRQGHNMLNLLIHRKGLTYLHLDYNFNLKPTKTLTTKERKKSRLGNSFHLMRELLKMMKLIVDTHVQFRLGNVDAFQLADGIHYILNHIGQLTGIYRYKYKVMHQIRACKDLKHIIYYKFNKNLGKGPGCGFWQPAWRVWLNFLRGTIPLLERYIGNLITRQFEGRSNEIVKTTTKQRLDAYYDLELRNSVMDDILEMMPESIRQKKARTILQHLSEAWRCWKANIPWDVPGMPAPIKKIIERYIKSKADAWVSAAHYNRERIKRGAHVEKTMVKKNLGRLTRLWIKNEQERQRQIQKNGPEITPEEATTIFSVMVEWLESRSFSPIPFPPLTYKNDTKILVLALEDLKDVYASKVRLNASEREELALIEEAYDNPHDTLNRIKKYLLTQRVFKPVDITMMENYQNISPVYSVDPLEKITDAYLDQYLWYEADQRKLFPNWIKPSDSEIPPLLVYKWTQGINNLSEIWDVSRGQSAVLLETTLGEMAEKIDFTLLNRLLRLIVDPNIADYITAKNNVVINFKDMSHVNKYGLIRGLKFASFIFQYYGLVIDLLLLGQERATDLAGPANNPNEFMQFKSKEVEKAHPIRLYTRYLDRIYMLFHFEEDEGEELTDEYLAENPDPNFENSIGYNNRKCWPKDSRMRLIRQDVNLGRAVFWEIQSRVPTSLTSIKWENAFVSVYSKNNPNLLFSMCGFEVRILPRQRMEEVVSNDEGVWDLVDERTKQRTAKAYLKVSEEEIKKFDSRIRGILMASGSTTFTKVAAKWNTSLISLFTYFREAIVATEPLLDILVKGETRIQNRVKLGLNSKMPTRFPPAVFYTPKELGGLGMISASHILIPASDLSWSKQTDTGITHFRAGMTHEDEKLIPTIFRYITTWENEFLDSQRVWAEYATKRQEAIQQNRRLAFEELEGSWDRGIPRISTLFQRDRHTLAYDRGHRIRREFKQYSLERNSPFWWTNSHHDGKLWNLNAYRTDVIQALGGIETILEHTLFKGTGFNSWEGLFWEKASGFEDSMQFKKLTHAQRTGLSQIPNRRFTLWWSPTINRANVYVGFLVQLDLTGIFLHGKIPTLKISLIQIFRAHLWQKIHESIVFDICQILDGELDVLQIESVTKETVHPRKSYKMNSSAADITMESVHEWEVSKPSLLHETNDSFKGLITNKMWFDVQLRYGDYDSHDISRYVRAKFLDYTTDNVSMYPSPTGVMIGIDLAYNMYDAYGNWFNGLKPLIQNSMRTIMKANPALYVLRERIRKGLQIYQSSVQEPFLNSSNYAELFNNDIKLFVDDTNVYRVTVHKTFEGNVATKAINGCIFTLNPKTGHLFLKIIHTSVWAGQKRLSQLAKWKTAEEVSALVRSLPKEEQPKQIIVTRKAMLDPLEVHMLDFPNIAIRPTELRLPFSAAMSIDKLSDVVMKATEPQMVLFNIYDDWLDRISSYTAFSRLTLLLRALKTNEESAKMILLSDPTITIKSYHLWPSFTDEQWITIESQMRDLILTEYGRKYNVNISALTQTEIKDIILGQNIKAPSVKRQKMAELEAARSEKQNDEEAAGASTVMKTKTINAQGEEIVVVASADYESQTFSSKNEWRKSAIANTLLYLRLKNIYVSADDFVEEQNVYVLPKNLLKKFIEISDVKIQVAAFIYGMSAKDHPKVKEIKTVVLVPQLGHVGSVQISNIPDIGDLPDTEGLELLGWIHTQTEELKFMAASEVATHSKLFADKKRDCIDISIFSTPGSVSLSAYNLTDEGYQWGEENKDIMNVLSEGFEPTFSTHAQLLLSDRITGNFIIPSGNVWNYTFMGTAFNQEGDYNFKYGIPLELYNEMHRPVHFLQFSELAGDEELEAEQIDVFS

effect of a mutation on the interaction	Substance
decreasing interaction	Pre-mRNA-splicing factor 8 (Saccharomyces cerevisiae), P33334 F2382L
disrupting interaction	Pre-mRNA-splicing factor 8 (Saccharomyces cerevisiae), P33334 F2392L
disrupting interaction	Pre-mRNA-splicing factor 8 (Saccharomyces cerevisiae), P33334 H2387P
disrupting interaction	Pre-mRNA-splicing factor 8 (Saccharomyces cerevisiae), P33334 R2388G
disrupting interaction	Pre-mRNA-splicing factor 8 (Saccharomyces cerevisiae), P33334 H2387R
disrupting interaction	Pre-mRNA-splicing factor 8 (Saccharomyces cerevisiae), P33334 R2388K
decreasing interaction	Pre-mRNA-splicing factor 8 (Saccharomyces cerevisiae), P33334 P2379T
